{"source": "paper PMC12520519", "about": "(2025)", "biological_target": "receptor binding domain (RBD) of the SARS-CoV-2 spike protein, WT (SARS-CoV-2, UniProt P0DTC2)", "test": "FACS", "data": [{"binder": "Delta-6 scFv (scFv, V domains shown) VH: EVQLLESGGGLVQPGGTLRLSCAASGFIVSSNYMSWVRQAPGKGLEWVSLVYPGGSTYYADSVKGRFTVSRDNSKNTLYLQMNSLRAEDMAVYYCARDLPSGVDAVDAFDIWGQGTMVTVSS VL: DIRVTQSPSSLSASVGDRVSITCRASQIISGYLNWYQQKPGSAPQLLIYASSSLQSGVPPRFSGSRSGTEFTLTISSLQPEDFATYYCQQTYSIPFTFGPGTKVDIK", "values": [{"measurement": "Kd", "value": 6.3, "unit": "nM"}]}]}
